# Measurements taken from patent CN113563467A (SHANGHAI PUMING BIOLOGICAL TECH CO LTD, dated 2021).
# B1: Ref1 (对照抗体依库珠单抗可变区，hIgG1/hIgG-Kappa) (antibody, V domains shown)
# VH: QVQLVQSGAEVKKPGASVKVSCKASGYIFSNYWIQWVRQAPGQGLEWMGEILPGSGSTEYTENFKDRVTMTRDTSTSTVYMELSSLRSEDTAVYYCARYFFGSSPNWYFDVWGQGTLVTVSS
# VL: DIQMTQSPSSLSASVGDRVTITCGASENIYGALNWYQQKPGKAPKLLIYGATNLADGVPSRFSGSGSGTDFTLTISSLQPEDFATYYCQNVLNTPLTFGQGTKVEIKR
# How the values were obtained:
# [1] = target: T1, 人C5蛋白 in 人血清补体 (Normal Human Serum Complement, Quidel, A112) (human, UniProt P01031 19-1676); test: cell-based or functional assay
# T1 sequence (P01031 19-1676 limits assumed): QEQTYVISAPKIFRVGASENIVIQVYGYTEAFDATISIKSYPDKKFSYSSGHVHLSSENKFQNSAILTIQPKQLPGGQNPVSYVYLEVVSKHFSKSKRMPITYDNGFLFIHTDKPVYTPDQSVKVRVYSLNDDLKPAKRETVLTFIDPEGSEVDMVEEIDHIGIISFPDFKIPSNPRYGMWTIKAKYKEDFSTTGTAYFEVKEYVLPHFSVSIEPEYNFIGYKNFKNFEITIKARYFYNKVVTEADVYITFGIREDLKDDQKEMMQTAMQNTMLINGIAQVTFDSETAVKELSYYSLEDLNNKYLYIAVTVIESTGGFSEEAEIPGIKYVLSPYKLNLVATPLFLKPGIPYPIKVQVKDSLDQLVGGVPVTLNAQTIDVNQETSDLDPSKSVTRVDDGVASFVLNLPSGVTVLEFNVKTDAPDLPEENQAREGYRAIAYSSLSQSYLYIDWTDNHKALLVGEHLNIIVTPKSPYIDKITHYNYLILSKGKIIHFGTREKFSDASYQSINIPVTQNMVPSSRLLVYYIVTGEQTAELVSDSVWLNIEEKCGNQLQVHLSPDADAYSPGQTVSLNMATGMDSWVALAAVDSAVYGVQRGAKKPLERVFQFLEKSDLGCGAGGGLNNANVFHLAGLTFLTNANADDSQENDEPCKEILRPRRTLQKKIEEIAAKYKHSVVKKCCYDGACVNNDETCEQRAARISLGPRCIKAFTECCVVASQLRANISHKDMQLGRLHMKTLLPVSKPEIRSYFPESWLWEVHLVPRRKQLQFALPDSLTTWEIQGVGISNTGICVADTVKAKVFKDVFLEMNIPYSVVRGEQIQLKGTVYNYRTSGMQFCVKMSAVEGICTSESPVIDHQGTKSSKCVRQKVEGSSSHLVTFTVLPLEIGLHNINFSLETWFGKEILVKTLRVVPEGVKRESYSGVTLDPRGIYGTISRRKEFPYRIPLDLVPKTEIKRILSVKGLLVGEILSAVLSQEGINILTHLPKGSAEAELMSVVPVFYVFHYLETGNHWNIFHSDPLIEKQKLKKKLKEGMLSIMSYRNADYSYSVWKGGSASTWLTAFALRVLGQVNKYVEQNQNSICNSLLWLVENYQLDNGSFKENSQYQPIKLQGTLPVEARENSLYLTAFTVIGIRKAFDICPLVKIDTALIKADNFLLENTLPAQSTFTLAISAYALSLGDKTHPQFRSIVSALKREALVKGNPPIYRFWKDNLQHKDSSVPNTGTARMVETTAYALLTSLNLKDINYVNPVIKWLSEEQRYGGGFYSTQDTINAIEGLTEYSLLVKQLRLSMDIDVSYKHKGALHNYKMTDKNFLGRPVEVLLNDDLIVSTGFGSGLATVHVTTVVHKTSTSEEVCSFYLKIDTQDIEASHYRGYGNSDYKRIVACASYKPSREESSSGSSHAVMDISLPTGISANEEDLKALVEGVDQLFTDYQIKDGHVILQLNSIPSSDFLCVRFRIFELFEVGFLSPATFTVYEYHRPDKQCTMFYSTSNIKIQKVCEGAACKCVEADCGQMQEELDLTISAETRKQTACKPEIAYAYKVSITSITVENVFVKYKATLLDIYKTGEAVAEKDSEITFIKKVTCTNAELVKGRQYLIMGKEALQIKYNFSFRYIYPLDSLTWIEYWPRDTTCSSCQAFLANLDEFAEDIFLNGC
# [2] = target: T1, 人C5蛋白 in 人血清补体 (Normal Human Serum …); test: cell-based or functional assay; remark: listed apart in the source
binder,measurement,setting,value
B1,"IC50(ug/ml), 补体依赖性溶血实验",[1],8.73 µg/mL
same,"EC50(ug/ml), 补体依赖性细胞毒性(CDC)阻断分析",[2],2.63 µg/mL
